Experimental findings from publication PMC7153820 (Oncoimmunology, 2020) are described below.

Assay [1] has as its target human TIM-3 on primary blood cells (Homo sapiens (Human)., UniProt Q8TDQ0). As to the kind of experiment: flow cytometry on cells.
Assay [2] has as its target rhTIM-3-Fc AF647 (R&D Systems 2365-TM) (Homo sapiens (Human)., UniProt Q8TDQ0, AF647). The experiment in a line: flow cytometry on cells.
The target in a further assay is rhTIM-3-IgG1-Fc (human, UniProt Q8TDQ0). As to the kind of experiment: ELISA. For orientation: ELISA stands for enzyme-linked immunosorbent assay.
Assay [3] concerns the target biotinylated recombinant human TIM-3-Fc chimera (R&D Systems 2365-TM) (human, UniProt Q8TDQ0, biotin (EZ-Link Sulfo-NHS-LC-Biotinylation kit)). The experiment in a line: ELISA.

B1: M6903, fully human anti-TIM-3 monoclonal IgG2 antibody (antibody, V domains shown)
VH: not shown
VL: QSALTQPRSVSGSPGQSVTISCTGTSSDVGGYNYVSWYQQHPGKAPKLMIYDVSKRPSGVPDRFSGSKSGNTASLTISGLQAEDEADYYCSSYADSVVFGGGTKVTVL
A word on the EC50: it is the concentration at which the effect is half-maximal. Read a high EC50 as a less potent agent. A word on the IC50: it is the concentration that gives 50% inhibition. The molecule B1 gave a concentration for a half-maximal effect (EC50) in assay [1] of 0.74 ± 0.57 nM. The IC50 in assay [2] amounted to 4.44 ± 3.12 nM; with rhTIM-3-IgG1-Fc it was 0.353 ± 0.383 nM; in assay [3], 7.46 ± 0.052 nM.
